Where no end group is shown, it is not given here.
What was measured:
[1] = molecular target: T1, membranal human CD28 (full-length human CD28 on cells) (human, UniProt P10747 19-220); assay: FACS, FITC conjugated VHH on HEK cells overexpressing human CD28 (FIG. 14)
T1 construct: in the functional assays also the CD28 of human CD3 or CD4 T cells and PBMC; also called mCD28; membranal CD28

[2] = molecular target: T2, Biotin conjugated L145K CD28 stalk region dimeric peptide (human, C-terminal biotin; dimer through Cysteine 141); assay: direct ELISA on L145K dimeric stalk peptide on neutravidin plates, anti His tag-HRP (FIG. 23)
T2 peptide: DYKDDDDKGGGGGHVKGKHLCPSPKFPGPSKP

[3] = molecular target: T3, BSA conjugated CD28 stalk region dimeric peptide (human, also: dimer through the cysteine, BSA conjugated via C-terminal Lys by hydrazide chemistry); assay: ELISA, antigen immobilized, serial dilution of M9, anti mouse IgG-HRP (FIG. 12A)
T3 construct: Peptide used for immunization and, BSA conjugated, as ELISA antigen for M9; also called stalk region peptide
T3 peptide: GKHLCPSPLFPGPSKPK

B1: VHH clone 2A1 (VHH)
VHH: EVQLVESGGGLVQAGESLRLSCAASGSIASINAMGWYRQAPGSQRELVAAISGGGDTYYADSVKGRFTISRDNAKTTVYLQMNSLRPEDTAVYYCVVDLYGSDYWDWGQGTQVTVSS
notes: also called VHH #2A1
binding result [1]: binds
binding result [2]: no binding (tested: 0.2-5 µg/mL)

B2: VHH clone 4A4 (VHH)
VHH: EVQLVESGGGLVQAGGSLRLSCAASGSLFSINAMAWYRQAPGKQRELVAAITSSGSTNYANSVKGRFTVSRDNAKNTMYLQMNSLKPEDTAVYYCVVDEYGSDYWIWGQGTQVTVSS
binding result [2]: no binding (tested: 0.2-5 µg/mL)

B3: antibody M9 (antibody, V domains shown)
VH: DVKLVESGGGLVKLGGSLKLSCVASGFTFSSYYMSWVRQTPEKRLEWVATISDGGDNTYYAGTVTGRFTISRDFAKNTLYLQMNSLTSEDTAVYYCARIHWPYYFDSWGQGTTLTVSS
VL: QFVLSQSPAILSASPGEMLTMTCRASSSVSYMNWYQQKPGSSPKPWIYATSDLASGVPARFSGSGSGTSYSLTISRVEAEDAATYYCQQWSSHPPTFGGGTKLEIR
notes: Full-size mouse antibody raised in CD1 mice against the dimeric stalk peptide; detected with anti mouse IgG; also called clone M9; anti-cleavage antibody M9
binding result [3]: binds

B4: VHH clone 4A1 (VHH)
VHH: QVQLVESGGGLVQAGGSLRLSCAASGSIFSINAMGWYRQAPGKQRERVAAITSGGSTNYADSVKGRFTISRDNAKNTVYLQMNNLEPRDAGVYYCVVDLYGEDYWIWGQGTQVTVSS
binding result [2]: no binding (tested: 0.2-5 µg/mL)

Source: patent US20220169732A1 (BIOND BIOLOGICS, published 2022)
